B1: Isoform 2 of Spermatid perinuclear RNA-binding protein (protein)
chain: MVKHSTIYPSPEELEAVQNMVSTVECALKHVSDWLDETNKGTKTEGETEVKKDEAGENYSKDQGGRTLCGVMRIGLVAKGLLIKDDMDLELVLMCKDKPTETLLNTVKDNLPIQIQKLTEEKYQVEQCVNEASIIIRNTKEPTLTLKVILTSPLIRDELEKKDGENVSMKDPPDLLDRQKCLNALASLRHAKWFQARANGLKSCVIVLRILRDLCNRVPTWAPLKGWPLELICEKSIGTCNRPLGAGEALRRVMECLASGILLPGGPGLHDPCERDPTDALSYMTIQQKEDITHSAQHALRLSAFGQIYKVLEMDPLPSSKPFQKYSWSVTDKEGAGSSALKRPFEDGLGDDKDPNKKMKRNLRKILDSKAIDLMNALMRLNQIRPGLQYKLLSQSGPVHAPVFTMSVDVDGTTYEASGPSKKTAKLHVAVKVLQAMGYPTGFDADIECMSSDEKSDNESKNETVSSNSSNNTGNSTTETSSTLEVRTQGPILTASGKNPVMELNEKRRGLKYELISETGGSHDKRFVMEVEVDGQKFRGAGPNKKVAKASAALAALEKLFSGPNAANNKKKKIIPQAKGVVNTAVSAAVQAVRGRGRGTLTRGAFVGATAAPGYIAPGYGTPYGYSTAAPAYGLPKRMVLLPVMKFPTYPVPHYSFF
B2: Pregnancy zone protein (protein)
chain: TEPQYMVLVPSLLHTEAPKKGCVLLSHLNETVTVSASLESGRENRSLFTDLVAEKDLFHCVSFTLPRISASSEVAFLSIQIKGPTQDFRKRNTVLVLNTQSLVFVQTDKPMYKPGQTVRFRVVSVDENFRPRNELIPLIYLENPRRNRIAQWQSLKLEAGINQLSFPLSSEPIQGSYRVVVQTESGGRIQHPFTVEEFVLPKFEVKVQVPKIISIMDEKVNITVCGEYTYGKPVPGLATVSLCRKLSRVLNCDKQEVCEEFSQQLNSNGCITQQVHTKMLQITNTGFEMKLRVEARIREEGTDLEVTANRISEITNIVSKLKFVKVDSHFRQGIPFFAQVLLVDGKGVPIPNKLFFISVNDANYYSNATTNEQGLAQFSINTTSISVNKLFVRVFTVHPNLCFHYSWVAEDHQGAQHTANRVFSLSGSYIHLEPVAGTLPCGHTETITAHYTLNRQAMGELSELSFHYLIMAKGVIVRSGTHTLPVESGDMKGSFALSFPVESDVAPIARMFIFAILPDGEVVGDSEKFEIENCLANKVDLSFSPAQSPPASHAHLQVAAAPQSLCALRAVDQSVLLMKPEAELSVSSVYNLLTVKDLTNFPDNVDQQEEEQGHCPRPFFIHNGAIYVPLSSNEADIYSFLKGMGLKVFTNSKIRKPKSCSVIPSVSAGAVGQGYYGAGLGVVERPYVPQLGTYNVIPLNNEQSSGPVPETVRSYFPETWIWELVAVNSSGVAEVGVTVPDTITEWKAGAFCLSEDAGLGISSTASLRAFQPFFVELTMPYSVIRGEVFTLKATVLNYLPKCIRVSVQLKASPAFLASQNTKGEESYCICGNERQTLSWTVTPKTLGNVNFSVSAEAMQSLELCGNEVVEVPEIKRKDTVIKTLLVEAEGIEQEKTFSSMTCASGANVSEQLSLKLPSNVVKESARASFSVLGDILGSAMQNIQNLLQMPYGCGEQNMVLFAPNIYVLNYLNETQQLTQEIKAKAVGYLITGYQRQLNYKHQDGSYSTFGERYGRNQGNTWLTAFVLKTFAQARSYIFIDEAHITQSLTWLSQMQKDNGCFRSSGSLLNNAIKGGVEDEATLSAYVTIALLEIPLPVTNPIVRNALFCLESAWNVAKEGTHGSHVYTKALLAYAFSLLGKQNQNREILNSLDKEAVKEDNLVHWERPQRPKAPVGHLYQTQAPSAEVEMTSYVLLAYLTAQPAPTSGDLTSATNIVKWIMKQQNAQGGFSSTQDTVVALHALSRYGAATFTRTEKTAQVTVQDSQTFSTNFQVDNNNLLLLQQISLPELPGEYVITVTGERCVYLQTSMKYNILPEKEDSPFALKVQTVPQTCDGHKAHTSFQISLTISYTGNRPASNMVIVDVKMVSGFIPLKPTVKMLERSSSVSRTEVSNNHVLIYVEQVTNQTLSFSFMVLQDIPVGDLKPAIVKVYDYYETDESVVAEYIAPCSTDTEHGNV
B3: Isoform 2 of Glycogen synthase kinase-3 (protein)
chain: MSGRPRTTSFAESCKPVQQPSAFGSMKVSRDKDGSKVTTVVATPGQGPDRPQEVSYTDTKVIGNGSFGVVYQAKLCDSGELVAIKKVLQDKRFKNRELQIMRKLDHCNIVRLRYFFYSSGEKKDEVYLNLVLDYVPETVYRVARHYSRAKQTLPVIYVKLYMYQLFRSLAYIHSFGICHRDIKPQNLLLDPDTAVLKLCDFGSAKQLVRGEPNVSYICSRYYRAPELIFGATDYTSSIDVWSAGCVLAELLLGQPIFPGDSGVDQLVEIIKVLGTPTREQIREMNPNYTEFKFPQIKAHPWTKDSSGTGHFTSGVRVFRPRTPPEAIALCSRLLEYTPTARLTPLEACAHSFFDELRDPNVKLPNGRDTPALFNFTTQELSSNPPLATILIPPHARIQAAASTPTNATAASDANTGDRGQTNNAASASASNST
B4: Protein-glutamine gamma-glutamyltransferase E (protein)
chain: AALGVQSINWQTAFNRQAHHTDKFSSQELILRRGQNFQVLMIMNKGLGSNERLEFIVSTGPYPSESAMTKAVFPLSNGSSGGWSAVLQASNGNTLTISISSPASAPIGRYTMALQIFSQGGISSVKLGTFILLFNPWLNVDSVFMGNHAEREEYVQEDAGIIFVGSTNRIGMIGWNFGQFEEDILSICLSILDRSLNFRRDAATDVASRNDPKYVGRVLSAMINSNDDNGVLAGNWSGTYTGGRDPRSWNGSVEILKNWKKSGFSPVRYGQCWVFAGTLNTALRSLGIPSRVITNFNSAHDTDRNLSVDVYYDPMGNPLDKGSDSVWNFHVWNEGWFVRSDLGPSYGGWQVLDATPQERSQGVFQCGPASVIGVREGDVQLNFDMPFIFAEVNADRITWLYDNTTGKQWKNSVNSHTIGRYISTKAVGSNARMDVTDKYKYPEGSDQERQVFQKALGKLKPNTPFAATSSMGLETEEQEPSIIGKLKVAGMLAVGKEVNLVLLLKNLSRDTKTVTVNMTAWTIIYNGTLVHEVWKDSATMSLDPEEEAEHPIKISYAQYEKYLKSDNMIRITAVCKVPDESEVVVERDIILDNPTLTLEVLNEARVRKPVNVQMLFSNPLDEPVRDCVLMVEGSGLLLGNLKIDVPTLGPKEGSRVRFDILPSRSGTKQLLADFSCNKFPAIKAMLSIDVAE
B5: Cluster of Interleukin enhancer-binding factor 3 (protein, UniProt Q12906 1-894, looked up)
Interleukin enhancer-binding …: MRPMRIFVNDDRHVMAKHSSVYPTQEELEAVQNMVSHTERALKAVSDWIDEQEKGSSEQAESDNMDVPPEDDSKEGAGEQKTEHMTRTLRGVMRVGLVAKGLLLKGDLDLELVLLCKEKPTTALLDKVADNLAIQLAAVTEDKYEILQSVDDAAIVIKNTKEPPLSLTIHLTSPVVREEMEKVLAGETLSVNDPPDVLDRQKCLAALASLRHAKWFQARANGLKSCVIVIRVLRDLCTRVPTWGPLRGWPLELLCEKSIGTANRPMGAGEALRRVLECLASGIVMPDGSGIYDPCEKEATDAIGHLDRQQREDITQSAQHALRLAAFGQLHKVLGMDPLPSKMPKKPKNENPVDYTVQIPPSTTYAITPMKRPMEEDGEEKSPSKKKKKIQKKEEKAEPPQAMNALMRLNQLKPGLQYKLVSQTGPVHAPIFTMSVEVDGNSFEASGPSKKTAKLHVAVKVLQDMGLPTGAEGRDSSKGEDSAEETEAKPAVVAPAPVVEAVSTPSAAFPSDATAEQGPILTKHGKNPVMELNEKRRGLKYELISETGGSHDKRFVMEVEVDGQKFQGAGSNKKVAKAYAALAALEKLFPDTPLALDANKKKRAPVPVRGGPKFAAKPHNPGFGMGGPMHNEVPPPPNLRGRGRGGSIRGRGRGRGFGGANHGGYMNAGAGYGSYGYGGNSATAGYSQFYSNGGHSGNASGGGGGGGGGSSGYGSYYQGDNYNSPVPPKHAGKKQPHGGQQKPSYGSGYQSHQGQQQSYNQSPYSNYGPPQGKQKGYNHGQGSYSYSNSYNSPGGGGGSDYNYESKFNYSGSGGRSGGNSYGSGGASYNPGSHGGYGGGSGGGSSYQGKQGGYSQSNYNSPGSGQNYSGPPSSYQSSQGGYGRNADHSMNYQYR
B6: Interleukin enhancer-binding factor 3 (protein)
chain: B5 Interleukin enhancer-binding …

Key:
Experiment in all cases: Mass spectroscopy proteomics, semi-quantitative binding affinity of serum proteins (plaqueproteome, Table 2)
Conditions in all cases: higher number = stronger affinity
[1] = target: T1, Abeta-42 plaque particles (Homo sapiens, UniProt P05067)
T1 construct: Abeta 1-42
Outline: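 AD patient serum or plasma (50% in PBS) was incubated with Abeta-42 aggregates (30 μg) for 1 h at 37 °C, then stained with Thioflavin S for 30 min. Labeled particles were FACS-sorted, trypsin/Lys-C digested overnight and analyzed by MS/MS. Sequest searched human UniProt; Scaffold/Protein Prophet validated the identifications.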

[2] = system: Low density cholesterol (Chl small) plaque particles; design: species or system human
Outline: (§1)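 Read-out is MS/MS protein identification (Sequest, strict trypsin, 20 ppm parent tolerance; Scaffold probabilities) of serum proteins bound to flow-sorted cholesterol plaque particles. These particles formed when 50% atherosclerotic serum was incubated with 30 μg cholesterol aggregates for 1 hr at 37° C.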

[3] = system: High Density cholesterol (Chl Large) plaque particles; design: species or system human
Outline: as §1

[4] = system: Tau plaque particles; design: species or system human
Outline: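 Synthetic Tau-74 and Tau-275 peptides (1 mg/mL PBS, 37° C, 2 h) aggregated; 30 μg aggregates incubated with 50% serum/plasma 1 h at 37° C, stained with Thioflavin S, and plaque particles sorted by flow cytometry. Bound proteins trypsin-digested and identified by MS/MS against human UniProt.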

[5] = target: T2, alpha-synuclein plaque particles (Homo sapiens, UniProt P37840)
T2 construct: 140 amino acids polypeptide
Outline: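 AD-subject plasma or serum (800 μL of 50%) mixed with 30 μg preformed alpha-synuclein aggregates for 1 h at 37 °C; Thioflavin S-positive particles isolated by flow sorting. After reduction, acrylamide alkylation and overnight tryptic digestion, serum proteins identified by MS/MS with Sequest and Scaffold.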

Row | Molecule | Semi-quantitative analysis of proteins binding to different plaque particles: Abeta-42 [1] | Semi-quantitative analysis of proteins binding to different plaque particles: Chl small [2] | Semi-quantitative analysis of proteins binding to different plaque particles: Chl Large [3] | Semi-quantitative analysis of proteins binding to different plaque particles: Tau [4] | Semi-quantitative analysis of proteins binding to different plaque particles: Synuclein [5]
1 | B1 | 2 | 0 | 0 | 0 | 0
2 | B2 | 4 | 2 | 0 | 0 | 0
3 | B3 | 4 | 0 | 0 | 0 | 0
4 | B4 | 2 | 0 | 0 | 0 | 0
5 | B5 | 4 | 0 | 0 | 0 | 0
6 | B6 | 4 | 0 | 0 | 0 | 0

— US9618524B2, “Method, composition, isolation and identification of a plaque particle and related biomarker” (Plaxgen Inc., priority 2012, dated 2017)
